# Target: mouse IgMκ paraprotein TEPC183
# Assay: flow cytometry on cells
# Conditions: mean ± 1 SD from three independent experiments; parent: est. 3.7; read off a plot
substance,measurement,value
"human IgM Fc receptor (FcµR), wild type (from UniProt O60667-1) N66del",response (MFI index (x10^2)),2.1
